Test: yeast display, Sf9 membrane polyspecificity reagent, FACS + sequencing; frameworks hold sequencing errors
Summary of the method: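 Galactose induction of a Saccharomyces cerevisiae BJ5465 synthetic nanobody display library ran 36–48 hours. The cells were then stained for 1 hour at 4 °C with 10% biotinylated, detergent-solubilized Sf9 membrane reagent, pulled down on streptavidin microbeads and FACS-sorted into low and high (top ~1%) gates on expression and reagent-binding fluorescence. Labels for polyreactivity follow the gate of origin.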

Sequence	polyreactivity (PSR sort gate)
QVQLVESGGGLFQAGGSLRLSCAASGYTFPLYDMGWYRQAPGKERELVADINIGGASTYYADSVKGRFTISRDNAKNTVNLQMNSLKPEDTAVYYCAKEYNDGYFPTFDYDYWGQGTQVTVSS	low polyreactivity
QVQLVESGGGLVQAGGSLRLSCAASGRNFGYYTMGWYRQAPGKERELVAAITSSGGRTYYADSVKGRFTISRDNAKNTVYLQMNSLIPEVTAVYYCNKVTYGYAYWRYDGYYYWGQGTQVTVSS	low polyreactivity
QVQLVESGGGLVQAGGSLRLSCAASGITFTYYVMGWYRQAPGKERELVAAITWRGGRTRYADSVKGRFTISRDNAKNTVYLQMNSLKPEDTAVYYCAADLHQRRYYYWGQGTQVTVSS	high polyreactivity
QVQLVESGGGLVQAGGSLRLSCAASGSISDWNAMGWYRQAPGKERELVAAINWSGDTTYYADSVKGRFTISRDTAKNTVYLQMNSLKPEDTAVYYCAADLVVDYEWYDYWGQGTQVTVSS	high polyreactivity
QVQLVESGGGLVQAGGSLRLSCSASGITSKNYAMGCYRQAPGKERELVAVISGRGGSTYYADSVKGRFTISRDNAKNTVYLQMNSLKPVDTAVYYCAAYGNQRRGAYPYKYDYWGQGTQVTVSS	high polyreactivity
QVQLVESWGGLVHAGGSLPLSCADSGITFFYYAMGWYRQAPGKEREFVAAISTSGGRTYYADSVKGRFTISRDNAKNTVYLQMNSLKPEDTAVYYCAARSRVPPAGPRYDYWGQGTQVTVSS	high polyreactivity
QVQLVETGGGLVQAGGSLRLICAASGSTFQPYAMGWYRQAPGKEREFVATISGSAGSTYYADSVKGRFKISRDNAKNTVYLQMNSLKPEDTAVYYCNADSGWFGYDYWGQGTQVTVSS	low polyreactivity
QVQLVESGGGLVQAGGSLRLSCAASGFIFNNYAMGWYRQAPGKERELVAAITWSGGGTYYADSVKGRFTISRDNAKNTVYLQMTSLKAEDTAVYYCAVYYPAYRDEYWGQGTQVTVSS	high polyreactivity
QVQLVESGGGLVQAGGSLRLSCAASGGTFQRYAMGWYRQAPGKERELVAAISSGGRTYYADSVKGRFTISRDNAKNTVYLQMNSLKAVDTAVYYCNAVGWTRYWRIGWSAYYYWGQGTQETVSS	high polyreactivity
QVQLVESGGGLVQAGGSLRLSCAASGSTFAPYAMGWYRQAPGKERELVATISFRGGSTYYADSVKGRFTISRDNEMNTVFLEMNNLKPEDTAVYYCNAQRRYPYGYGYWGQGTQVTVSS	high polyreactivity
QVQLVESGGGLVQAGGSLLLSCAASGSIFYSNAMAWYRQAPGKERELVATITWSGGRTYYADSVKGRFTISRDNAKNTVYLQMNSLKPDDTAVYYCAAVSIYWGQGTQVTVSS	low polyreactivity
QVQHVESGGGLVQAGGSLRLSCAASGRNFTYYAMGWYRQAPGKERELVAAISGGGITNYADSVKGRFTISRDNAKNTVYLQMNSLKPEDTAVYYCAADQRYRRAFRSRYGSWGQGTQVTVSS	low polyreactivity
QVQLVESGGGLVQAGGSLRLSCAASGFIFYWYVMGWYRQAPGKERELVAGISKNGTNTYYADSVKGRFTISRDNAKNTVYLQMNSLKPEDTAVYYCAARGYIRSRHYLEGYWGQGTQVTVSS	high polyreactivity
QVQLVESGGGLVQAGGSLRLSCAASGRIFKRYAMGWYRQAPGKERELVAAITYNSGSTYYADSVKGRFTISRDNAKNTVYLQMNSLKPEDTAVYYCAAEKWSDQSPRGDYWGQGTQVTVSS	low polyreactivity
QVQLVESGGGLVQAGGSLRLSCAASGRIFPTSTKGWYRQAPGKERELVAAITSGGTTYYADSVKGRVTISRDNAKNTVYLQMNSLKPEDTAVYYCAALRPRRGYYYWGQGTQVTVSS	high polyreactivity
QFQLVESGGGLVQAGGRLRLSCAASGYTFYSYAMGWSRQAPGKERELVASITRRVGGTYYADSVKGRFTISRDNAKKTVYLQMNSLKPEDTAVYYCAAGYYHKKSSTDIEKYWGQGTQLTVSS	low polyreactivity
QVQLVESGGGLVQAGGSLRLSCAASGLILDGYAMGWYRQAPGKERELVAAITRSGGRTYYADSVKGRFTISRDNAKNTVYLQMKSLKPEDPAVYYCAALGWSGRYRYDYWGQGTQVTVSS	high polyreactivity
QVQLVESGGGLVQAGGSLRLSCAASGLIFYENAMGWYRQAPGKERELVAAINYDGDSTYYADSVKGRFTISRDNAKNTVYLQMNSLKPEDTAVYYCAADGGWVLFWMDYWGQGTQVTVSS	low polyreactivity
QVQLVESGGGLVQAGGSLRLSCAASGRTFRRYTMGWYRQAPGKERELVATISWSGGTTYADSVKGRFTISRDNAKNTVYLQMNSLKPEDTAVYFCAAVSYVYRYYWGQGTQVTVSS	low polyreactivity
QVQLVESGGGLVQAGGSLRLSCAASGFTFSKYAMGLYRQAPGKERELVAAITRRGSSTYYADSVKGRFTLSRDNAKNTVYLQMNSLKPEDTAVYYCNAPRPNGYLGEDNYWGQGTKVTVSS	high polyreactivity
QVQLEESGGGLVQAGGSLRLSCAASGRTFYRSAMGWYRPEPGKERELVAAITWSGGSTYYAVSVKGRFTTSRDNAKNTVYLQMNSLKPEDTAVYYCARRLYPYRPTAYDYWGQGTQVTVSS	low polyreactivity
QVQLVESGGGLVQAGGSLRISCAASGSIVYPYAMGWYRQAPGKERELVAAISYSGGSTYYADSVKGSFTISRDNAKNTVYLQMNSLKPEDTAVYYCNVYAGQYGMNYWGQGTQVTVSS	high polyreactivity

Sequence	polyreactivity (PSR sort gate)
QVQLVESGGGLVQAGGSLRLSCAASGRTFSGYAMGWYRQAPGKERELVAGITWNGGRTYYADSVKGRFTISRDNAKNTVSLQMNSLKPEDTAVYYCNKLGAVYPKYGYWGQGTQVTVSS	high polyreactivity
QVQLVESGGGLVQAGGSLRLSCAASGSYLRYYAMGWYRPARGKERELVAAISRSGTNTYYAHSVKGRFTISRDNAKNTVYLQMNSLKPEDTAVYYCAARGYYRDYDSWGQGTQVTVSS	high polyreactivity
QVQLVESGGGLVQAGGSLRLSCAASGFIFRYYAMGWYRQAPGKERELVAAISSSGGSTRYADSVKGRFTISRDNAKNTVYLQMNSLKPEDTAVYYCAARRWRGRYWGDYWGQGTQVTVSS	high polyreactivity
QDQLVESGGGLVQAGGSLGLSCAASGITFDLYDMGWYRQAPGKERELVAAITDAHSTYYADSVKGRFTISRDNAKNTVYLQMNSLKPEDTAVYYCAADFFYSVDSGHYDYWGQGTQVTVSS	low polyreactivity
QVQLVESGGLLVQAGGSLRLSCAASGRISPKNAMGWYRQAPGKERELVATIRKIGGRTYYADSVKGRFTISRDNAKNTVYLQMNSLKTEDTAVYYCATDFAPSYYPDRFDYWGQGTQVTVSS	low polyreactivity
QVQLVESGGGLVQAGGSLRLSCAASGRTFYYYAMGWYRQAPGKERELVASITSGDGTYYADSVKGRFTISRDNAKNTVYLQMNSLKPEDTAVYYCAADIFYKFSYYPWYPYRDYYYSGQGTQVTVSS	low polyreactivity
QVQLVESGGGLVQAGGSLRLSCAASGLTIVGNAMGWYRQAPGKERELVASISSRGGSTYYADSVKGRFTISLDNSKNTVYLQMNSLNPEDTAVYYCAAGNSYGVRLLYQIVTRYYWGQGTQVTVSS	high polyreactivity
QVQLVESGGGLVQAGGSLRLSCAASGRTFRKNVMGWYRQAPGKEREFVASISSSGSSTYYADSVKGRFTISRDYAKNTVYLQMNSLKPEDTAVYYCAARSVYATKRKYDYWGQGTQVTVSS	high polyreactivity
QVQIVESGGGLVQAGGSLRISCAASGSIFVQYAMGLYRQAPGKERELVAAITTGGGTNYADSVKGRFKISRDNAKNTVYLQMNSLKPEDTAVYSCAADSRWLVRLYDYWGHGTQVTVSS	low polyreactivity
QVHLVESGGGLVQAGGSLRLSCAASGSTFYVYAMGWYRQAPGKERELVAAISTSTGNTYYADSVKGRFTISRDNAKNTVYLQMNSLKPEDSAVYDCANSGSSSHYYSWGQGTQVTVSS	low polyreactivity
QVQLVESGGGLVQAGCSLRLSCAASGFTFLNNAMGWSRQAPGKEREMVAAISQSGTSTYYADSVKGRFTISRDNAKNTVYLQMNSLKPEDTAVYYCAAEDTYPHDYSGGLEYDYWGQGTQVTVSS	low polyreactivity
QVQLVESGGGLVQAGGSLRLSCAASGSIFPYYAMGWYRQAPGKERELVATITYRGGSTNYADSVKGRFTISRDNAKNTVYLQMNSLNPEDTAVYYCAAYGYVLASPYPYSFVKLGYWGQGTQVTVSS	low polyreactivity
QVQLVESGGGLVQAGGSLRLSCAASGFTYGYYAMGGYRQAPGKERELVAAITNGGRTNYADSVKGRFTISRDNAKNTVYLQMNSLKPEDTAVYYCATDHYWSREGYWGQGTQVTVSS	low polyreactivity
QVQLVESGGGLVQAGGSLRLSCAASGSISLLYAMGWYRQAPGKDRELVAAISSGTDDTYYADSVKGRFTISRDNAKNTVYLQMNSLKPEDTAVYYCAADPLFKDDLWPVRVRVDYWGQGTQVTVSS	low polyreactivity
QVQLVESGGGLVQAGGSLRLSCAASGRSFKKYAMGWYRQAPGKERELVAAITASGGSTYYADSVKGRYTISRDNAKNTVYLQMNSLTPEDTAVYYCAAYAYGVWHSQDGGNYWGQGTQVTVSS	low polyreactivity
QVQLVESGGGLVQAGGSLRLSCAASGSTFLRNAMGWYRQAPGKERELVAAISWSAGSTYYADSVKGRFTISRDNAKNTVYLQMNSLKPEDTAVYYCAVDKYVFVSYSFYFEYDYWGQGTQVTVSS	low polyreactivity
QVQLGESGGGLVQAGGSLRLSCAASGIIFRRYAMGWYRQAPGKERELVAVISSGGSTNYADSVKGRFTISRDNAKNTVYLQMNSLKPEDTAVYYCAAPSQSRGYYYWGQGTQVTVSS	high polyreactivity
QVQLVESGGGLVQAGGSLRLSCAASGRIFYYYVMGWYRQAPGKERELVAVIDWSGGSTYYADSVKGRFTISRDNAKNTVYLQMNSLKPEDTGVYYCAKVWLKFSLAYEDYDYLGQGTQVTVSS	low polyreactivity
QVQLVESGGGLVQAGGSLRLSCAASGITFTAYAMGWYRQAPGKERELVATINSTGITNYADSVKGRFTISRDNAKNTVYLQMNSLNPEDTAVYYCAADLLDISSYDGMDYWGQGTQVTVSS	low polyreactivity
QVQLVESGGGLVQAGGSLRLSCAASAFIYSFNAMGWYSQAPGKERELVAAISRSGGSTRYADSVKGRFTISRDTAKNTVYLQMNSLKPEYTAVYYCATDASPVRKRYDYWGQGTQVTVSS	high polyreactivity
QVQLVESGGGLDQARGSLRLSCAASGSTLAVYAIGWYRQAPGKEREFVAAISWSGVSTYYADSVKGRFTISLDNAKNTVYLQMNSLKPEDTAVYDCAAKRVRALYGGSEGGYWGQGTQVTVSS	low polyreactivity
